How the values were obtained:
Assay in all cases: IEDB peptide-MHC binding, purified MHC/competitive/radioactivity; filed as Kd, often an IC50 or EC50 that approximates it; ≥ and ≤ were set here for values at or beyond the usual limits of such assays
HLA-A*03:01 = biological target: HLA-A*03:01
HLA-A*11:01 = biological target: HLA-A*11:01
HLA-A*31:01 = biological target: HLA-A*31:01
HLA-A*33:01 = biological target: HLA-A*33:01
HLA-A*68:01 = biological target: HLA-A*68:01
HLA-A*02:06 = details: source organism: Dengue virus 2 Jamaica/1409/1983
[1] = source organism: Vaccinia virus WR
[2] = source organism: SARS coronavirus Tor2
[3] = source organism: Mammarenavirus juninense

Sequence | Kd (HLA-A*03:01; [1]) [nM] | Kd (HLA-A*11:01; [1]) [nM] | Kd (HLA-A*31:01; [1]) [nM] | Kd (HLA-A*33:01; [1]) [nM] | Kd (HLA-A*68:01; [1]) [nM] | further results
TLNGIMMNER | 226 | 1330 | 108 | 1460 | 743 | –
TQSVLCVKK | 1040 | 6.64 | 1010 | ≥ 67900 | 228 | –
TSRTLSYYK | – | – | – | – | – | Kd (HLA-A*03:01; [2]): 450 nM; Kd (HLA-A*11:01; [2]): 160 nM; Kd (HLA-A*31:01; [2]): 179 nM; Kd (HLA-A*33:01; [2]): 2400 nM; Kd (HLA-A*68:01; [2]): 840 nM
TVKPGNFNK | – | – | – | – | – | Kd (HLA-A*03:01; [2]): 81.5 nM; Kd (HLA-A*11:01; [2]): 33 nM; Kd (HLA-A*31:01; [2]): 41.6 nM; Kd (HLA-A*33:01; [2]): 1000 nM; Kd (HLA-A*68:01; [2]): 122 nM
VCFHEFLSSK | – | – | – | – | – | Kd (HLA-A*03:01; [3]): 3470 nM; Kd (HLA-A*11:01; [3]): 4500 nM; Kd (HLA-A*31:01; [3]): 1530 nM; Kd (HLA-A*33:01; [3]): ≥ 70000 nM; Kd (HLA-A*68:01; [3]): 14400 nM
VFCNDHKGNR | ≥ 53200 | ≥ 69800 | 428 | 1880 | 4090 | –
VLPHLCLDY | 102 | 421 | 7820 | 1990 | 15000 | –
VQADSGCVV | – | – | – | – | – | Kd (HLA-A*02:06): 79.6 nM
VSAKQLRTR | 12700 | 2730 | 286 | 13400 | 1050 | –
VTGFMEEEIK | 13300 | 7.06 | 10700 | ≥ 33900 | 1220 | –
VVNARLRAK | – | – | – | – | – | Kd (HLA-A*03:01; [2]): 13.8 nM; Kd (HLA-A*11:01; [2]): 130 nM; Kd (HLA-A*31:01; [2]): 199 nM; Kd (HLA-A*33:01; [2]): ≥ 24900 nM; Kd (HLA-A*68:01; [2]): 8180 nM
WLHECTDESR | ≥ 70100 | ≥ 69800 | 6230 | 254 | 273 | –
WSRIGTAATK | 101 | 1070 | ≥ 28900 | ≥ 70000 | 786 | –
YISRDELWAR | ≥ 25600 | 792 | 1.75 | 0.808 | 32.4 | –
YIYKSGKLVK | 7.74 | 36 | 7800 | 7860 | 539 | –
YMSALNHTK | – | – | – | – | – | Kd (HLA-A*03:01; [2]): 108 nM; Kd (HLA-A*11:01; [2]): 48.4 nM; Kd (HLA-A*31:01; [2]): 642 nM; Kd (HLA-A*33:01; [2]): 1120 nM; Kd (HLA-A*68:01; [2]): 3.43 nM

From the Immune Epitope Database (IEDB)
